The values that follow come from paper PMC2140218.

Assay [1] concerns the target taxol-stabilized bovine brain microtubules (bovine) (UniProt Q6B856). As to the kind of experiment: co-sedimentation.
Assay [2] shares this target. As to the kind of experiment: co-sedimentation. This is another data set of the same source.

Read-outs that look alike come from different tables or passages of the source.

B1: Stu2p N612 (domain or fragment)
chain: KVNPIGSVASASKPSMVAANNKSRVLLTSKSLATPKNVVANSTDKNEKLIEEYKYRLQKLQNDEMIWTKERQSLLEKMNNTENYKIEMIKENEMLREQLKEAQSKLNEKNIQLRSKEIDVNKLSDRVLSLENELRNMEIELDRNKKRNDTNLQSMGTISSYSIPSSTVSSNYGVKSLSSALPFKEEEDVRRKEDVNYERRSSESIGDLPHRVNSLNIRPYRKNGTGVSSVSDDLDIDFNDSFASEESYKRAAAVTSTLKARIEKMKAKSRREGTTRT
modifications: [35S]methionine label
For the molecule B1, the fold higher Kd than full length Stu2p in assay [1] is 3.5 fold.

B2: Stu2p C557 (domain or fragment)
chain: MSGEEEVDYTTLPLEERLTYKLWKARLEAYKELNQLFRNSVGDISRDDNIQIYWRDPTLFAQYITDSNVVAQEQAIVALNSLIDAFASSSLKNAHNITLISTWTPLLVEKGLTSSRATTKTQSMSCILSLCGLDTSITQSVELVIPFFEKKLPKLIAAAANCVYELMAAFGLTNVNVQTFLPELLKHVPQLAGHGDRNVRSQTMNLIVEIYKVTGNNSDLLEEILFKKLKPIQVKDLHKLFAKVGDEPSSSKMLFEWEKRELEKKRSQEEEARKRKSILSNDEGEYQIDKDGDTLMGMETDMPPSKQQSGVQIDTFSMLPEETILDKLPKDFQERITSSKWKDRVEALEEFWDSVLSQTKKLKSTSQNYSNLLGIYGHIIQKDANIQAVALAAQSVELICDKLKTPGFSKDYVSLVFTPLLDRTKEKKPSVIEAIRKALLTICKYYDPLASSGRNEDMLKDILEHMKHKTPQIRMECTQLFNASMKEEKDGYSTLQRYLKDEVVPIVIQIVNDTQPAIRTIGFESFAILIKIFGMNTFVKTLEHLDNLKRKKIEETV
modifications: [35S]methionine label
In assay [1], B2 had a fold higher Kd than full length Stu2p of 30 fold.

B3: Stu2p (natural protein)
chain: MSGEEEVDYTTLPLEERLTYKLWKARLEAYKELNQLFRNSVGDISRDDNIQIYWRDPTLFAQYITDSNVVAQEQAIVALNSLIDAFASSSLKNAHNITLISTWTPLLVEKGLTSSRATTKTQSMSCILSLCGLDTSITQSVELVIPFFEKKLPKLIAAAANCVYELMAAFGLTNVNVQTFLPELLKHVPQLAGHGDRNVRSQTMNLIVEIYKVTGNNSDLLEEILFKKLKPIQVKDLHKLFAKVGDEPSSSKMLFEWEKRELEKKRSQEEEARKRKSILSNDEGEYQIDKDGDTLMGMETDMPPSKQQSGVQIDTFSMLPEETILDKLPKDFQERITSSKWKDRVEALEEFWDSVLSQTKKLKSTSQNYSNLLGIYGHIIQKDANIQAVALAAQSVELICDKLKTPGFSKDYVSLVFTPLLDRTKEKKPSVIEAIRKALLTICKYYDPLASSGRNEDMLKDILEHMKHKTPQIRMECTQLFNASMKEEKDGYSTLQRYLKDEVVPIVIQIVNDTQPAIRTIGFESFAILIKIFGMNTFVKTLEHLDNLKRKKIEETVKTLPNFSIASGSTHSTIETNKQTGPMENKFLLKKSSVLPSKRVASSPLRNDNKSKVNPIGSVASASKPSMVAANNKSRVLLTSKSLATPKNVVANSTDKNEKLIEEYKYRLQKLQNDEMIWTKERQSLLEKMNNTENYKIEMIKENEMLREQLKEAQSKLNEKNIQLRSKEIDVNKLSDRVLSLENELRNMEIELDRNKKRNDTNLQSMGTISSYSIPSSTVSSNYGVKSLSSALPFKEEEDVRRKEDVNYERRSSESIGDLPHRVNSLNIRPYRKNGTGVSSVSDDLDIDFNDSFASEESYKRAAAVTSTLKARIEKMKAKSRREGTTRT
modifications: [35S]methionine label
Broadly, the Kd is the concentration at which binding is half-saturated. Consider B3, for which the Kd worked out at 540 nM in assay [1] and 560 nM in assay [2].

B4: Stu2p C657 (domain or fragment)
chain: MSGEEEVDYTTLPLEERLTYKLWKARLEAYKELNQLFRNSVGDISRDDNIQIYWRDPTLFAQYITDSNVVAQEQAIVALNSLIDAFASSSLKNAHNITLISTWTPLLVEKGLTSSRATTKTQSMSCILSLCGLDTSITQSVELVIPFFEKKLPKLIAAAANCVYELMAAFGLTNVNVQTFLPELLKHVPQLAGHGDRNVRSQTMNLIVEIYKVTGNNSDLLEEILFKKLKPIQVKDLHKLFAKVGDEPSSSKMLFEWEKRELEKKRSQEEEARKRKSILSNDEGEYQIDKDGDTLMGMETDMPPSKQQSGVQIDTFSMLPEETILDKLPKDFQERITSSKWKDRVEALEEFWDSVLSQTKKLKSTSQNYSNLLGIYGHIIQKDANIQAVALAAQSVELICDKLKTPGFSKDYVSLVFTPLLDRTKEKKPSVIEAIRKALLTICKYYDPLASSGRNEDMLKDILEHMKHKTPQIRMECTQLFNASMKEEKDGYSTLQRYLKDEVVPIVIQIVNDTQPAIRTIGFESFAILIKIFGMNTFVKTLEHLDNLKRKKIEETVKTLPNFSIASGSTHSTIETNKQTGPMENKFLLKKSSVLPSKRVASSPLRNDNKSKVNPIGSVASASKPSMVAANNKSRVLLTSKSLATPKNVVANSTDKN
modifications: [35S]methionine label
B4 had a fold higher Kd than full length Stu2p in assay [1] of 1.6 fold.

B5: Stu2p N558 (domain or fragment)
chain: KTLPNFSIASGSTHSTIETNKQTGPMENKFLLKKSSVLPSKRVASSPLRNDNKSKVNPIGSVASASKPSMVAANNKSRVLLTSKSLATPKNVVANSTDKNEKLIEEYKYRLQKLQNDEMIWTKERQSLLEKMNNTENYKIEMIKENEMLREQLKEAQSKLNEKNIQLRSKEIDVNKLSDRVLSLENELRNMEIELDRNKKRNDTNLQSMGTISSYSIPSSTVSSNYGVKSLSSALPFKEEEDVRRKEDVNYERRSSESIGDLPHRVNSLNIRPYRKNGTGVSSVSDDLDIDFNDSFASEESYKRAAAVTSTLKARIEKMKAKSRREGTTRT
modifications: [35S]methionine label
In assay [1], B5 had a fold higher Kd than full length Stu2p of 1.4 fold.

B6: Stu2p N658 (domain or fragment)
chain: EKLIEEYKYRLQKLQNDEMIWTKERQSLLEKMNNTENYKIEMIKENEMLREQLKEAQSKLNEKNIQLRSKEIDVNKLSDRVLSLENELRNMEIELDRNKKRNDTNLQSMGTISSYSIPSSTVSSNYGVKSLSSALPFKEEEDVRRKEDVNYERRSSESIGDLPHRVNSLNIRPYRKNGTGVSSVSDDLDIDFNDSFASEESYKRAAAVTSTLKARIEKMKAKSRREGTTRT
modifications: [35S]methionine label
Consider B6, for which the fold higher Kd than full length Stu2p in assay [1] was greater than 50 fold.

B7: Stu2p C611 (domain or fragment)
chain: MSGEEEVDYTTLPLEERLTYKLWKARLEAYKELNQLFRNSVGDISRDDNIQIYWRDPTLFAQYITDSNVVAQEQAIVALNSLIDAFASSSLKNAHNITLISTWTPLLVEKGLTSSRATTKTQSMSCILSLCGLDTSITQSVELVIPFFEKKLPKLIAAAANCVYELMAAFGLTNVNVQTFLPELLKHVPQLAGHGDRNVRSQTMNLIVEIYKVTGNNSDLLEEILFKKLKPIQVKDLHKLFAKVGDEPSSSKMLFEWEKRELEKKRSQEEEARKRKSILSNDEGEYQIDKDGDTLMGMETDMPPSKQQSGVQIDTFSMLPEETILDKLPKDFQERITSSKWKDRVEALEEFWDSVLSQTKKLKSTSQNYSNLLGIYGHIIQKDANIQAVALAAQSVELICDKLKTPGFSKDYVSLVFTPLLDRTKEKKPSVIEAIRKALLTICKYYDPLASSGRNEDMLKDILEHMKHKTPQIRMECTQLFNASMKEEKDGYSTLQRYLKDEVVPIVIQIVNDTQPAIRTIGFESFAILIKIFGMNTFVKTLEHLDNLKRKKIEETVKTLPNFSIASGSTHSTIETNKQTGPMENKFLLKKSSVLPSKRVASSPLRNDNKS
modifications: [35S]methionine label
B7 had a fold higher Kd than full length Stu2p in assay [1] of 6 fold.
